Assay [1] concerns the target recombinant human TYRP1 (tyrosinase-related protein-1) (human) (UniProt P17643). As to the kind of experiment: ELISA, plate coated with recombinant human TYRP1, antibody titrated. (ELISA stands for enzyme-linked immunosorbent assay.)
Assay [2] has the same target. As to the kind of experiment: ELISA on plate-coated recombinant human TYRP1 (column headed 'Competition ELISA'); summary table.
Assay [3] shares this target. Put plainly: SPR (Biacore), TYRP1 immobilized on CM5 chip, antibody injected, 20-25 °C.
The target is the same in assay [4]. Put plainly: SPR (Biacore), TYRP1 immobilized; summary table. Background: Surface plasmon resonance follows binding to a sensor surface in real time, without labels.
The target in assay [5] is native human TYRP1 expressed on human melanoma cell lines (624mel, SKmel28, SKmel23) (human, UniProt P17643 25-537). Put plainly: cell-based or functional assay.

The record followed here is US20090232823A1 (Eli Lilly, published 2009).

As usually defined, the EC50 is the concentration at which the effect is half-maximal. For orientation: Kd means a measure of binding affinity in units of concentration. What is called koff is a measure of how fast the partners let go of each other. As usually defined, the kon is a measure of how fast the partners come together. Consider “TA99, murine monoclonal antibody (IgG2a) specific for human and murine TYRP1”, for which the concentration giving a half-maximal response (EC50) in assay [1] and in assay [2] was 0.4 nM throughout. In addition, the Kd in assay [3] and in assay [4] was 1.7 nM in each case. Moreover, in assay [3], the koff turned out to be 0.00016 s⁻¹. In addition, in assay [3], the association rate constant (kon) stood at 95000 M⁻¹ s⁻¹.

B1: CTA99, chimeric antibody with a human constant region IgG1 (antibody, V domains shown)
VH: EVQLQQSGAELVRPGALVKLSCKTSGFNIKDYFLHWVRQRPDQGLEWIGWINPDNGNTVYDPKFQGTASLTADTSSNTVYLQLSGLTSEDTAVYFCTRRDYTYEKAALDYWGQGASVIVFS
VL: AIQMSQSPASLSASVGETVTITCRASGNIYNYLAWYQQKQGKSPHLLVYDAKTLADGVPSRFSGSGSGTQYSLKISSLQTEDSGNYYCQHFWSLPFTFGSGTKLEIKR
B1: the “Human ADCC (%)” value in assay [5] came out at 48%.
